Results on 3 molecules are retold here after US7018801.

The target in series [1] is GG (GST - ICS linker - GFP model substrate for ICE) (human) [GST: P08515].
The target is the same in series [2]. Nature of the series: cell-based or functional assay.
For series [3], the target named is GG (GST - ICS linker - GFP model substrate for ICE) [GST: P08515].
Series [4] addresses GM (GST - ICE-site linker - MBP model substrate for ICE) [GST: P08515].
In series [5] the target is T1, ICS (14 mer epitope that is part of human pro-IL-1beta) (human).
T1 chain: NEAYVHDGPVRSLN
Nature of the series: method not stated; 'measured in a different context' from the protease experiment.

Sequence of GG (GST - ICS linker - GFP model substrate for ICE) [GST: P08515] (P08515 whole entry, looked up): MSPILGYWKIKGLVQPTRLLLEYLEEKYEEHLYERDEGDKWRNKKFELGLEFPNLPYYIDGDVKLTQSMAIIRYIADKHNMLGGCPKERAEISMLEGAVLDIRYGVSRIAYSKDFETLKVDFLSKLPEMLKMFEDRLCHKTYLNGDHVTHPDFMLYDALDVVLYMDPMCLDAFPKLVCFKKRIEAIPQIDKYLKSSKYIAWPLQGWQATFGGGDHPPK
Sequence of GM (GST - ICE-site linker - MBP model substrate for ICE) [GST: P08515] (P08515 whole entry, looked up): as above

B1: synthetic LEPB (peptide, from a related filing)
peptide: KARKEAELAAATAEQ
Regarding B1, the IC50 (read off the curve), inhibition of ICE cleavage of GG in series [1] came out at 80 µM. In series [2], this molecule came in with an IC50 of inhibition of the cleavage of GG by ICE of 50 to 100 µM.

B2: interleukin converting enzyme (ICE) (protein)
chain: NPAMPTSSGSEGNVKLCSLEEAQRIWKQKSAEIYPIMDKSSRTRLALIICNEEFDSIPRRTGAEVDITGMTMLLQNLGYSVDVKKNLTASDMTTELEAFAHRPEHKTSDSTFLVFMSHGIREGICGKKHSEQVPDILQLNAIFNMLNTKNCPSLKDKPKVIIIQACRGDSPGVVWFKDSVGVSGNLSLPTTEEFEDDAIKKAHIEKDFIAFCSSTPDNVSWRHPTMGSVFIGRLIEHMQEYACSCDVEEIFRKVRFSFEQPDGRAQMPTTERVTLTRCFYLFPGH
In the case of B2, the “cleavage of substrate by purified ICE” value in series [3] was “Purified ICE cuts both the GG and GM substrates efficiently under these conditions”; in series [4], “Purified ICE cuts both the GG and GM substrates efficiently under these conditions”.

B3: LEPB (peptide)
chain: KARKEAELAAATAEQ
modifications: not checked
As usually defined, the Kd is the constant that tells how readily two partners part at equilibrium. High values mean weaker binding, low ones tighter binding. Molecule B3 came in with a Kd in series [5] of 2 µM.
